From US20070292434A1 (VIB VZW, published 2007) come the findings set out here.

Data set [1] deals with the molecule itself. Nature of the data set: non-reducing anti-FLAG Western blot of COS-1 supernatant (self-association). The source says:
Panel A: The plasmid encoding FNIII-FLAG-His was transfected in COS-1 cells. Supernatant was subjected to Western blot analysis under reducing (R) or non-reducing (NR) conditions with an anti-FLAG antibody.
Panel A: Plasmid pMET7 CRH2-FLAG-His was transiently transfected in COS-1 cells. Supernatant was subjected to Western blot analysis with an anti-FLAG antibody under reducing (R) and non-reducing (NR) conditions.
We next analyzed the ligand-independent clustering of the FNIII domains in more detail. Constructs were generated to produce secreted forms of the FNIII domains, either as a FLAG-His-, or as a SEAP-FLAG-tagged protein. When FNIII-FLAG-His was expressed in COS-1 cells and analyzed under non-reducing conditions, di-, tri- and even higher order clusters were observed (FIG. 2, panel A). This clustering is independent of protein concentration since transfection with smaller amounts of expression vector gave the same clustering pattern. To confirm this FNIII-clustering, we set up a His/SEAP co-precipitation experiment. In this assay, FNIII-SEAP-FLAG proteins were co-expressed with FNIII-FLAG-His, or with empty vector as a negative control. Supernatants were analyzed in a precipitation experiment with a Ni²⁺ affinity resin. Co-precipitated SEAP activity reflects interaction between the proteins. FIG. 2, panel B clearly confirms homotypic interaction of the FNIII domain.

Data set [2] deals with the molecule itself. Nature of the data set: non-reducing anti-FLAG Western blot of secreted protein (self-association).
Data set [3] concerns the molecule itself. Nature of the data set: non-reducing anti-FLAG Western blot of COS-1 lysates (self-association). The text has this:
Panel A: Plasmids encoding (1) mLR ΔCRH1, ΔIg, ΔCRH2; (2) mLR ΔCRH1, ΔIg, ΔCRH2 cys672ser; (3) mLR ΔCRH1, ΔIg, ΔCRH2 cys751ser; (4) mLR ΔCRH1, ΔIg, ΔCRH2 cys672,751ser were transiently transfected in COS-1 cells. Transfected cells were lyzed in a reducing (R) or non-reducing (NR) loading buffer. Lysates were loaded on a SDS-PAGE gel, blotted to a nitro-cellulose membrane and subjected to Western blot with an anti-FLAG antibody.

Residue numbers refer to the chain shown, from its start.

B1: FNIII-FLAG-His (receptor, murine, UniProt P48356 637-839, looked up, not shown: small tags and cut ends)
chain: PMRGPEFWRKMDGDVTKKERNVTLLWKPLTKNDSLCSVRRYVVKHRTAHNGTWSEDVGNRTNLTFLWTEPAHTVTVLAVNSLGASLVNFNLTFSWPMSKVSAVESLSAYPLSSSCVILSWTLSPDDYSLLYLVIEWKILNEDDGMKWLRIPSNVKKFYIHDNFIPIEKYQFSLYPVFMEGVGKPKIINGFTKDAIDKQQNDAG
notes: domain: FNIII domains; Secreted from COS-1 or Hek293T cells; runs as di-, tri- and higher order disulphide-linked clusters under non-reducing conditions; also called mLR FNIII-FLAG-His; soluble FNIII domains
In the case of B1, the binding result in data set [1] is “binds”.

B2: FNIII-FLAG-His cys672ser (receptor, murine, UniProt P48356 637-839, looked up, not shown: small tags and cut ends)
chain: B1 chain with C36S
notes: domain: FNIII domains
On to B2, for which, in data set [2], the binding result was “binds”.

B3: FNIII-FLAG-His cys751ser (receptor, murine, UniProt P48356 637-839, looked up, not shown: small tags and cut ends)
chain: B1 chain with C115S
notes: domain: FNIII domains
Turning to B3, in data set [2], the binding result is given as “binds”.

B4: CRH2-FLAG-His (receptor, murine, UniProt P48356 428-635, looked up, not shown: small tags and cut ends)
chain: VNINISCETDGYLTKMTCRWSPSTIQSLVGSTVQLRYHRRSLYCPDSPSIHPTSEPKNCVLQRDGFYECVFQPIFLLSGYTMWIRINHSLGSLDSPPTCVLPDSVVKPLPPSNVKAEITVNTGLLKVSWEKPVFPENNLQFQIRYGLSGKEIQWKTHEVFDAKSKSASLLVSDLCAVYVVQVRCRRLDGLGYWSNWSSPAYTLVMDVK
notes: domain: CRH2; Expressed as a reduction-sensitive oligomeric complex; also called mLR CRH2-FLAG-His; soluble CRH2 domain
On to B4, for which the binding result in data set [1] is on record as “binds”.

B5: mLR ΔCRH1, ΔIg, ΔCRH2 cys751ser (receptor, murine, UniProt P48356 637-1162, looked up, not shown: small tags and cut ends)
chain: PMRGPEFWRKMDGDVTKKERNVTLLWKPLTKNDSLCSVRRYVVKHRTAHNGTWSEDVGNRTNLTFLWTEPAHTVTVLAVNSLGASLVNFNLTFSWPMSKVSAVESLSAYPLSSSSVILSWTLSPDDYSLLYLVIEWKILNEDDGMKWLRIPSNVKKFYIHDNFIPIEKYQFSLYPVFMEGVGKPKIINGFTKDAIDKQQNDAGLYVIVPIIISSCVLLLGTLLISHQRMKKLFWDDVPNPKNCSWAQGLNFQKPETFEHLFTKHAESVIFGPLLLEPEPISEEISVDTAWKNKDEMVPAAMVSLLLTTPDPESSSICISDQCNSANFSGSQSTQVTCEDECQRQPSVKYATLVSNDKLVETDEEQGFIHSPVSNCISSNHSPLRQSFSSSSWETEAQTFFLLSDQQPTMISPQLSFSGLDELLELEGSFPEENHREKSVCYLGVTSVNRRESGVLLTGEAGILCTFPAQCLFSDIRILQERCSHFVENNLSLGTSGENFVPYMPQFQTCSTHSHKIMENKMCDLTV
notes: domain: FNIII, transmembrane and cytoplasmic domains (CRH1, Ig and CRH2 deleted); also called single cys751ser mutant receptor
For the protein B5, the binding result in data set [3] is “binds”.

B6: mLR ΔCRH1, ΔIg, ΔCRH2 cys672ser (receptor, murine, UniProt P48356 637-1162, looked up, not shown: small tags and cut ends)
chain: B5 chain with C36S, S115C
notes: domain: FNIII, transmembrane and cytoplasmic domains (CRH1, Ig and CRH2 deleted)
Regarding B6, in data set [3], the binding result is given as “binds”.
